Measured values: the supplement of paper PMC12636428

System: Saccharomyces cerevisiae
Assay: transcriptional activation domain activity (GFP:mCherry ratio, weighted mean of sorted bins, harmonized to initial dataset scale) (arbitrary fluorescence ratio units); higher = stronger transcriptional activation
Settings: beta-estradiol 1 µM; induction time 4 h
In short: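 Values are activation activity, found as the read-weighted mean of bin median fluorescence, averaged across barcodes and then mapped linearly onto the initial dataset scale. Barcoded protein tiles fused to an estradiol-inducible synthetic transcription factor were integrated at the URA3 locus of GFP-reporter yeast diploids. Cells were induced for 4 hours at 30 °C with 1 uM beta-estradiol in SC, sorted into 8 bins by GFP:mCherry ratio, and barcode-sequenced, with tiles under 50 reads discarded.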

Sequence | transcriptional activation domain activity
TFGLQTSDKNHYIVDAIHVAVARVGVYVQYPQLQKWSLGKIFYISVWKMRTKF | 68800
PYSLDIKNTVLDSADLNDIQNQETSLNLGLPPLSFDSPLPVTETIPSTTDNSL | 73400
STAARTHGSKRSRDEEDGEGEERAKKRSRSEERVNTTRETRATRATRATSARP | 31100
GNGGAGAGAGGANANANANANAGNGAAAAGGNNAATAATGGGKAAKAAAAAAA | 22600
PSHEYNKTLSALLILLESSAERCFKDLTLLRAAGVTLLGRLFLVFPVFFNPRH | 57600
MRKLQVRSWSGLHVLSHFQIFDLLALIPGGWCNQILWLQGHHQWYIVILFVFT | 65800
CPVHTTLHVPHFLIWSSHILFFFLVFFFVFSLFPFPLVCLVAFFLVLSALPPS | 42700
NYVMLCSVYTTVHIHKHGRDAWKLMIRERSWKYILFAMADLQGNLFVLYAFRN | 59300
TKIGTGMGEQMLSREYYYIGTQLPLDRFLTFYYAHPGFHVNNIFIMLSVQLFM | 51100
MFYYIYLFSFFFIIVLPLPLSLCTFLHPLLLDCNFTLVAFFFCLLLFYVCHFF | 28800
MEGMQVEQDIARGSRKPHRKSRLGCGNCKQRRVKCDERKPSCDRCVKHNILCD | 23800
MLLLRVAGGRVMGCDVVGGFFFIFLFYLFIILGFVCCLVGWHVCWVFWFLVGF | 54300
GVLFCLSCLSFINLSFFLGGGCLFSFSFLFPALVWRYAFFLLVLDYRRILNIP | 36900
VGETVVTFCYEDGIMVMAMVGSGFMGYYLYTLQVKHSFSGPGPWFLGMALICL | 68700
MADEEGASPRELILEACRRNNTSLLEETLADLASSASKAKQDPTGYVAKTLNE | 42600
LWYRFQVVMIRRYHFHFHLLGYRMTYLRFIQFLNIWYFFIAIACLLFIIVIGA | 46300
MRLSRCCVFILLFFFDLVYYYPFLLLFNGFGGICIFLVLKRSHRETEFICFMQ | 60600
IRLLFVWIVCTRIVLASRSACGRCYRSYLAMRSRSGWRWVSRRTAAVLVLRWC | 61500
SPKMYESFLRIDLRNLEVRVLGMGATTSDVRLANIVVQYLVKGWLPQTAYATL | 71200
FVYLILTILPCLDHRCPYRTPMSSIWWYCWHTSLGFFALCARWLLNLLHGILV | 50200
RFLLCLLCMELLLHFVYVGAINSSLPVWDSYTPAQLSLLSFQNLIIIWLKLLL | 36800
HSALSRSEVSGTGRKAYAQKGRGKARVGSLRAPHFRGGGRAFPVKPRDHSTKL | 17000
QLMTGPVLLDREVQTGHSGSLLVLVMSCWSLECFERRQALRKTVLALLGPLRE | 70700
LIWSCKLIWAAYLDMYRYHIYVLVSFEVVALLTWILTLLYGVPNLINLVYHAY | 56300
EGGEGGDGAGGDGAAAGGKDGEGGKGGGKEEKGGKAGKDAKGGAKKPGSGKKG | 16500
AALFLSVQHKLFYLVMSLARFNLYFLSYSFLLLHAKRRWHWYAEIASIMLFWS | 50400
IWGSANTLPKYLYFISRYFGLLGQLVVSTNLVPMFCFDYLVWSFGFLFTLILS | 87200
MIKKISFFLYIFALRSSFFLFLFVLYFFFPLFFFFFFSFSFFFLLLVSVATLE | 12200

Sequence | transcriptional activation domain activity
QLNLVNHFYQFSLHFFLDIFDYILHHNPNLKGVTDYPTRRAILLNDLFLVVYR | 58200
AKRGRASSNASSVQGSTGAASGSSRNKRGGAAEERAGSTSADLANKTADQRKR | 22900
GRNKRREKRPEEETTRQRRKGKREEQERRRTTKAGTKAEKRGEERRASGDANE | 23100
LTHEFRMGLIPLGLVALLSSGTTLTLICFICWRLVTWKLHYNTFLGYNQYVLL | 50400
LSLAGSNYFGICWNPAVKNCIPYDTYLLWIRCMPFWYLFVFLYDILPPILIVY | 52200
LLFTLLWLLFFFFFFLFLLFFFVVLVFVFFVVYFFILLLLFIVVDDEWVLLGL | 45300
IAIQVMNRVLFFKAFKNVTRYSCAYKLCLVFFFFYIVINGKNFYVIEYAHLSM | 49300
AVKKEPTPEEDEEEEEEEPAPKPKARGGRKAKASAAVDADAAQAKPKRGRAKK | 30300
MGLWARFICFVIVCFQITFLYCLLSFSPSFLDLQKTQPLFFTFFFFLLLSLFP | 60400
HSPEAANAALRAMDGHSLEGHALKIQGSHRGADAAEERRKEDAAKKATGTKIL | 44000
MSIFFSVIPPFFSFLPLMLFFFFFLGCLGNGSTFFVSTLLWMGGSIGLLSFYS | 55600
KTTGPDARISHTSVQRFASYLGLRVALDRLRLQLAAATTIRHFISRLSRVLVF | 50600
RVHMLLCICLIATFVGVTVDLALEILFRLSQFSESPRFSPTGSRTLILTLPLF | 45300
LAQDPAGEQKKRRGRPPRYNVKLEPGEGDGAVTAPVKARKRKRESETPLSAPP | 33600
TASSGTRATTTSSAPRSRRTHTTPLRAAQARAPRCRTARARTSCGSTPTARRS | 23800
QFRYLKRLLLVHGHWSYARNGNMINNFFYKNIICIGVLWWFMIYCGWSSAYVF | 71200
SRIRAKRIYTKLNLFFRSAFLSYTDFKQTIIVLVSLLKLSLNLWDIVKLMCPQ | 47400
LIVVLILAPHPSLFRMLLRHHLQTLQQPFYFVIHLLVTYTLTFCAFSSLIICA | 53700
SSRRTKKSRRRRRGSSSSSSEAPSRKQRKAAASSSDEEQDRRARRKGKGKGRV | 30800
VGEEGEEKESMRVRVREEMVAQATSLAFLRNVNAIGEETTSLLDTAARLVRIG | 63700
MSDATPTSARKAMAPRRSHRKSRLGCANCKRRRIKCDEQKPACSNCVKHDIRC | 24400
GAGGAMGAALKHAVRDLAALSTAVSGAWVVEAITSSCSRRSIAVLVSRALAAM | 42000
EEGGKEKEMREVERLSADERKLWGEALRLGRTGYSESAMIWVHVLALRVFVET | 37700
MMLVQSIPVSRDVILGVLLRLLAPTVFLSSVVLALLLVSTLCKIPKQGRLRAW | 64600
MFKGSFFFSLTGFLFSLLFLFFYPLPCWGRDHFFCWGLECLFSLFLSWVLFTV | 41100
AAEEEDEEAKPLPAKKKRSSKKRKAEDAAEPEEKPAAKKKTAKVSGRGKKAAD | 16300
RIWLRRLFDIARLLSVGVSNQWSLRMLLDRDAFTPLLIKWLNYYSLRIWTSAV | 68500
